Drawing on publication PMC9181642, this text covers fold increase of the association with Ang II over control cells for 4 substances.

Sequence of insulin receptor (mouse (endogenous in 3T3-L1)) (P15208 28-1372): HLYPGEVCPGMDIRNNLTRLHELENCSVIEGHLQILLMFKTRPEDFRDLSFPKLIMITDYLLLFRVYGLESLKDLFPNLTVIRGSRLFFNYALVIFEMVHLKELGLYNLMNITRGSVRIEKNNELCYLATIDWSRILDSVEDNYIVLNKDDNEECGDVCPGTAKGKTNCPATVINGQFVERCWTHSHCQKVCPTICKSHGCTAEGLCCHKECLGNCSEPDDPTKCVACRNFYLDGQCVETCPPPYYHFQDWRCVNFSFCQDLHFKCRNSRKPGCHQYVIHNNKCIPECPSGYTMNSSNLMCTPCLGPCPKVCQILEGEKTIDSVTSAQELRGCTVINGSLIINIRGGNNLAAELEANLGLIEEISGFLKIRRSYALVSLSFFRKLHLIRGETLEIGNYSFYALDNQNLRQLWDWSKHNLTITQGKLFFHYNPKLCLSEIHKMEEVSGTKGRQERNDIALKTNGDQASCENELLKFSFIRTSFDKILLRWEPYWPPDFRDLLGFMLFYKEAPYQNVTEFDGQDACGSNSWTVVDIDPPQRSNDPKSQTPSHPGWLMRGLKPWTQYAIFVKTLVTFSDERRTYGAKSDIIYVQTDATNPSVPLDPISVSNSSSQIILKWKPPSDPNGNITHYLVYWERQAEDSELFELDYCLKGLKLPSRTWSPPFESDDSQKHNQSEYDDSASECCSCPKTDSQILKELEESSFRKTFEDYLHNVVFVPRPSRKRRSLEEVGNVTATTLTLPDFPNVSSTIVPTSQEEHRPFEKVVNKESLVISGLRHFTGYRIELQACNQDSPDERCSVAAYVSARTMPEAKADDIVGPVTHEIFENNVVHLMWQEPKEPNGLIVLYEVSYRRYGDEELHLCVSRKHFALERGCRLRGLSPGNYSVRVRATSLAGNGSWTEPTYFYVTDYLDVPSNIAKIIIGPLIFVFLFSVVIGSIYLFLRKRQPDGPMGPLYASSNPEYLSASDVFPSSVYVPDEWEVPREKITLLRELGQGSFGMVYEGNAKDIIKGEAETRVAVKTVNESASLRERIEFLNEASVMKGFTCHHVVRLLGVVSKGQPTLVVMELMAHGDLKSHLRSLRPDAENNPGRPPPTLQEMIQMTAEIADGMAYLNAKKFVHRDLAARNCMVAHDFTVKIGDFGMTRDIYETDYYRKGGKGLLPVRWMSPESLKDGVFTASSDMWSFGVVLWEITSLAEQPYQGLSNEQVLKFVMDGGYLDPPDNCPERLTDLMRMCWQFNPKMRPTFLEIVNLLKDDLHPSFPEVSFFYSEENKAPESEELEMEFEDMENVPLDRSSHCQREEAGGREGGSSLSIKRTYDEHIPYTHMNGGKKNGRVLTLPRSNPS

This experiment addresses insulin receptor (mouse (endogenous in 3T3-L1)). As to the kind of experiment: co-IP; lysates of differentiated, serum-deprived 3T3-L1 adipocytes, untreated or treated with 100 nM Ang II for 60 min (for PKCβII also 10 µM DuP 753 for 30 min before Ang II); lysis in 50 mM Tris-HCl, 150 mM NaCl, 1% Nonidet P-40, 10% glycerol, 2 mM EDTA, pH 7.4; IR precipitated with anti-IR-β polyclonal antibody and protein A/G PLUS-Agarose; blots probed with anti-PKCα, -βI, -βII or -δ and quantified by densitometry.
Turning to “PKCα (from UniProt P20444 1-672) (enzyme)”, the fold increase of the association with Ang II over control cells was determined as 2 fold.

“PKCβI (from UniProt P68404 1-671) (enzyme)”: the fold increase of the association with Ang II over control cells was 1.2 fold.

As to “PKCβII (from UniProt P68404-2 1-673) (enzyme)”, the fold increase of the association with Ang II over control cells came out at 4 fold.

In the case of “PKCδ (from UniProt P28867 1-674) (enzyme)”, the fold increase of the association with Ang II over control cells amounted to 1.5 fold.
